Experimental data reported in patent US20080219970A1 (published 2008).

Tests used:
factor VIIa = target: T1, factor VIIa (UniProt P08709 61-466); experiment: SPR (BIAcore 3000), Ir-CPI immobilized on CM5 chip, factor injected as analyte
T1 construct: also called fVIIa; FVIIa
T1 sequence (looked up): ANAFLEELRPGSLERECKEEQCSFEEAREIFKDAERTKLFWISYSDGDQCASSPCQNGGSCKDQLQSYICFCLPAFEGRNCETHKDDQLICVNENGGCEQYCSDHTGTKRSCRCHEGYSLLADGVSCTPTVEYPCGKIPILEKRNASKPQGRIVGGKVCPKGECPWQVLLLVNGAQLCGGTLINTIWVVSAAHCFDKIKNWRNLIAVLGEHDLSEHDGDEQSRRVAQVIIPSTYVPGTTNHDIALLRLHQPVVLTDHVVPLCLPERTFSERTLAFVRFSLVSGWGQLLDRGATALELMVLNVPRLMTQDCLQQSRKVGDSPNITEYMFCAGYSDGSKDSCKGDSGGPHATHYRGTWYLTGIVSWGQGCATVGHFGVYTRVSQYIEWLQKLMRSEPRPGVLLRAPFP
Description: (§1) The interaction between Ir-CPI and coagulation or fibrinolytic factors was monitored using a BIAcore 3000 instrument (BIAcore AB, Sweden). Ir-CPI (15 μM) was immobilized on the surface of a CM5 sensor chip in 10 mM acetate buffer, pH 5.0, by the amine coupling procedure according to the manufacturer's instructions. 1500 resonance units (RU) of immobilized Ir-CPI were used for the assay. To subtract the non-specific component from the apparent binding response, a blank flow cell was prepared using the same immobilizing procedure without Ir-CPI. Binding analyses were carried out using HBS buffer (HEPES10 mM, NaCl 150 mM, EDTA 3 mM; pH 7.4 with 0.005% surfactant P20) as running buffer at 25° C. 100 μl of each analyte (100 nM) was injected on the sensor chip at a flow rate of 70 μl/min. Association was monitored during an 84 s injection of analyte. Dissociation was monitored for 3 min after return to the running buffer.
(§2) The ability of Ir-CPI to bind a (co)factor of coagulation or fibrinolysis was evaluated by surface plasmon resonance. […] Moreover, the kinetics of interaction between Ir-CPI and the four target factors (XIIa, XIa, plasmin and kallikrein) were measured after a new immobilization of Ir-CPI. In experiments to determine the binding kinetics, the quantity of immobilized Ir-CPI was deliberately kept at a low level (approximately 200 RU) in order to avoid problems where the reaction rate is limited by mass-transport. […] Interaction kinetics were determined for each analyte, at 6 different concentrations (from 5 nM to 300 nM). The kinetic data obtained were individually processed with BIA evaluation software in order to determine the kinetics constants.

thrombin = thrombin (UniProt P00734 328-622); experiment: as above
Description: as §1, §2

t-PA = t-PA (UniProt P00750 36-562); experiment: as above
Description: as §1, §2

factor IXa = target: T2, factor IXa (UniProt P00740 47-191; P00740 227-461); experiment: as above
T2 construct: read as fIXa; also called FIXa
Description: as §1, §2

factor IX = target: T3, factor IX (UniProt P00740 47-461); experiment: as above
T3 construct: also called fIX
Description: as §1, §2

factor X = target: T4, factor X (UniProt P00742 41-488); experiment: as above
T4 construct: also called fX
Description: as §1, §2

plasminogen = plasminogen (UniProt P00747 20-810, limits assumed); experiment: as above
Description: as §1, §2

[1] = target: T5, high molecular weight kininogen (UniProt P01042 19-644); experiment: as above
T5 construct: also called HMWK
T5 sequence (looked up): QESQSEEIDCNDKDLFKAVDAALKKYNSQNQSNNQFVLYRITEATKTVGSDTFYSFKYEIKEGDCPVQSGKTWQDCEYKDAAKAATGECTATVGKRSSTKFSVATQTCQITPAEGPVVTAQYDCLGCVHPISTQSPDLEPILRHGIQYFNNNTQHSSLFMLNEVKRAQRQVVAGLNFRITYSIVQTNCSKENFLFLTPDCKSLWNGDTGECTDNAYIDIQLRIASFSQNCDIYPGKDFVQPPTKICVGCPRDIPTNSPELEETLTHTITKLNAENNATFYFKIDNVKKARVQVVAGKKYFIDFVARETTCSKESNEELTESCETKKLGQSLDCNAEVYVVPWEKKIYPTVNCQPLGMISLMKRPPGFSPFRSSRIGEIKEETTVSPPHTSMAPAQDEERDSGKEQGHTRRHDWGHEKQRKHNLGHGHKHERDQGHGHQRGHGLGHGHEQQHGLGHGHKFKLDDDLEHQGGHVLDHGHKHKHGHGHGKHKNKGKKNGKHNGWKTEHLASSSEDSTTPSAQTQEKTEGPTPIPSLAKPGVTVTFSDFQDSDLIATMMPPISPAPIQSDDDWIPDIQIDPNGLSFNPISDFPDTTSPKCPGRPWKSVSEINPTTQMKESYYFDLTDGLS
Description: as §1, §2

kallikrein = target: T6, kallikrein (UniProt P03952 20-638); experiment: SPR kinetics (BIAcore 3000), Ir-CPI immobilized at about 200 RU, analyte at 6 concentrations from 5 nM to 300 nM
T6 construct: also called plasma kallikrein
Description: Interaction kinetics were determined, for each analyte, with 6 different concentrations (from 5 nM to 300 nM). Binding data were analyzed using BIA evaluation software to determine the kinetic constants.
as §2, with “constants. […] FIG. 9 represents sensorgrams for interactions between coagulation factors and immobilized Ir-CPI measured by surface plasmon resonance. Ir-CPI was immobilized onto the surface of a sensor chip CM5 at level of 1500 resonance units (RUs). Contact factors (100 nM final concentration) were injected at a flow rate of 70 μl/min in HBS buffer, and association was monitored. After return to buffer flow, dissociation was monitored during 84 s. […]” for “constants.”

Chain of plasminogen (P00747 20-810 limits assumed): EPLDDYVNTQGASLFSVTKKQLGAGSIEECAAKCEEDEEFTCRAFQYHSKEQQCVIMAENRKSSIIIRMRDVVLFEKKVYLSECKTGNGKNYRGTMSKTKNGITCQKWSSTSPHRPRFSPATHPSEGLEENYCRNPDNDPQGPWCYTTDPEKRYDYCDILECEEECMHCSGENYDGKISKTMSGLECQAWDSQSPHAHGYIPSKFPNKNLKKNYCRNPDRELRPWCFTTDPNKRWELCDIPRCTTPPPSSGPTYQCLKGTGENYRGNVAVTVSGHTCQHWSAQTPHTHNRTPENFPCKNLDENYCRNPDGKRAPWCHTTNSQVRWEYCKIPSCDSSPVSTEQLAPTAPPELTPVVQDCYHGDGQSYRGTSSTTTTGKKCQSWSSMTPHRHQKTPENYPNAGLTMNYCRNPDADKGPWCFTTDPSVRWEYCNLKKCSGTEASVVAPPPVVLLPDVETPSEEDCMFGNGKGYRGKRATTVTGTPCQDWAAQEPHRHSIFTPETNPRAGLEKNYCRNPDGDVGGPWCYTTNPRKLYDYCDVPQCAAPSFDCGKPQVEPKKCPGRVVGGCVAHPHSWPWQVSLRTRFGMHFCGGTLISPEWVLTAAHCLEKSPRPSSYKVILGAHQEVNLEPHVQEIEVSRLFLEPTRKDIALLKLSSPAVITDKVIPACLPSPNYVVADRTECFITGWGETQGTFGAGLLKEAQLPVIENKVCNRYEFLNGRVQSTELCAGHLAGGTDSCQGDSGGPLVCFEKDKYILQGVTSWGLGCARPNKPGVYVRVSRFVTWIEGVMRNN
Chain of t-PA (P00750 36-562 limits assumed): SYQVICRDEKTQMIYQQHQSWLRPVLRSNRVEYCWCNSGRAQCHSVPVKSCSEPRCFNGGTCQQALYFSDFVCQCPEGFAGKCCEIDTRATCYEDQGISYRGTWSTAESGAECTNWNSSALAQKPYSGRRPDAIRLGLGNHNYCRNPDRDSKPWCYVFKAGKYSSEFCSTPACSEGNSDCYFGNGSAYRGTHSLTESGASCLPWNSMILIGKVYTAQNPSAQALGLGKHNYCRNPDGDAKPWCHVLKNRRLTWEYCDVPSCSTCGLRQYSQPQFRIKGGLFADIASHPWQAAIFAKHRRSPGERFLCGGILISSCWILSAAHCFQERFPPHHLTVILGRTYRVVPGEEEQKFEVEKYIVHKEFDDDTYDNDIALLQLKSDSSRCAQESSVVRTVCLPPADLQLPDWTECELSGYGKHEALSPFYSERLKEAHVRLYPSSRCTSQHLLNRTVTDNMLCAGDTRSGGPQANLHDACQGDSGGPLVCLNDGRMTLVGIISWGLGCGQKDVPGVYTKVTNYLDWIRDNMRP
T6 sequence (P03952 20-638 limits assumed): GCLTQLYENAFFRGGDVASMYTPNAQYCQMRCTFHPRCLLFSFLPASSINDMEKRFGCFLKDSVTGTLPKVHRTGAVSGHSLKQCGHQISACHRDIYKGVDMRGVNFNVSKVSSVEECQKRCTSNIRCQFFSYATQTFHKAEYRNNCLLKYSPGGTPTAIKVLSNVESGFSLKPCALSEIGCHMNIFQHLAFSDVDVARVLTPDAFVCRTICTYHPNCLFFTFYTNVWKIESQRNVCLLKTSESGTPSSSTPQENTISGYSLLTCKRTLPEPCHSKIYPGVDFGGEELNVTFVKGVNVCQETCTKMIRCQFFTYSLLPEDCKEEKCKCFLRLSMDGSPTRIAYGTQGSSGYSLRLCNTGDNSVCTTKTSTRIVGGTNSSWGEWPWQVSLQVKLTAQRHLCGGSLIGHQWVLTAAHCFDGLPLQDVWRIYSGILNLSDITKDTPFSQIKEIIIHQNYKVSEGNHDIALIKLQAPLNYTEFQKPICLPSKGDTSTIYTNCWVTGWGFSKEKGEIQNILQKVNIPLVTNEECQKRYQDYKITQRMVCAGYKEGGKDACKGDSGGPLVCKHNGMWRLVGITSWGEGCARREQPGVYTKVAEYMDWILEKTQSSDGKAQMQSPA

B1: Ir-CPI (Ixodes ricinus Contact Phase Inhibitor), recombinant, without its peptide signal (other)
chain: ANHKGRGRPAKCKLPPDDGPCRARIPSYYFDRKTKTCKEFMYGGCEGNENNFENITTCQEECRAKKV
notes: Immobilized on a CM5 chip by amine coupling for SPR; also called recombinant Ir-CPI
binding result (factor VIIa): no binding (tested: 100 nM) | binding result (thrombin): no binding (tested: 100 nM) | binding result (t-PA): no binding (tested: 100 nM) | binding result (factor IXa): no binding (tested: 100 nM) | binding result (factor IX): no binding (tested: 100 nM) | binding result (factor X): no binding (tested: 100 nM) | binding result (plasminogen): no binding (tested: 100 nM) | binding result [1]: no binding (tested: 100 nM) | Kd (kallikrein): 200 nM
